# Laboratory results: PMC6411926, “Engagement of DNA and H3K27me3 by the CBX8 chromodomain drives chromatin association” (Nucleic Acids Research, 2018)
# Ends that are not written are not given here. trimethyl = trimethyl-lysine
# T1: CBX8 chromodomain (residues 8-61) (UniProt Q9HC52 8-61)
# T1 construct: CBX8 chromodomain, residues 8-61; Uniformly 15N-labelled for the NMR titrations; The methods name two chromodomain constructs (Addgene 62514 and GST-CBX8 8-61 in pGSTag); the purification that is described is that of the GST fusion cleaved with TEV; also called CD; CBX8 CD; source: E. coli BL21 (DE3), purified (glutathione agarose, TEV cleavage, cation exchange, Superdex 75)
# T1 sequence (looked up): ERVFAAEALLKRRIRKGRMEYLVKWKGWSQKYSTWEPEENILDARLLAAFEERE
# T2: CBX8 chromodomain (CD) (UniProt Q9HC52 8-61)
# T2 sequence: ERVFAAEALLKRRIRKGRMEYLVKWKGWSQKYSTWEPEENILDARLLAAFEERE
# B1: H3K27me3 (23-34) histone peptide (peptide)
# chain: KAARK(trimethyl)SAPATGG
# B2: 11 bp DNA (dsDNA)
# DNA 1: GCGTTTAAGCG
# DNA 2: CGCTTAAACGC
# Tests used:
# [1] = molecular target: histone H3K27me3 peptide (Homo sapiens) (UniProt P68431); conditions: cited from earlier work
# [2] = molecular target: T1, CBX8 chromodomain (residues 8-61); test: NMR titration; 1H-15N HSQC; histone peptide added to 15N-CD pre-bound to an 11 bp DNA (CD:DNA 1:1); conditions: both partners purified
# [3] = molecular target: T1, CBX8 chromodomain (residues 8-61); test: NMR titration; 1H-15N HSQC of 0.05-0.10 mM 15N-CBX8 CD with increasing molar ratios of unlabelled histone peptide; 25 °C; 100 mM NaCl, 40 mM phosphate pH 6.8; CSPs fit to a single-site model with ligand depletion, global Kd as the average over perturbed resonances; conditions: both partners purified
# CBX8 chromodomain (CD) = molecular target: T2, CBX8 chromodomain (CD); test: NMR titration (1H-15N HSQC); authors' estimate (likely); saturation at ~1:1, curved CSPs; EMSA: 25 mM phosphate pH 6.8, 25 mM NaCl, 1 mM EDTA, 1 mM DTT, 15 min on ice, 6% gel in 0.4x TBE; NMR: 40 mM phosphate pH 6.8, 100 mM NaCl, 25 C; conditions: protein: recombinant; tags: GST removed by TEV; 15N-labelled for NMR; blunt
molecule,measurement,setting,value
CBX8 chromodomain (from UniProt Q9HC52),Kd,[1],> 500 µM
B1,Kd,[2],200 µM
same,Kd,[3],700 µM
B2,Kd,CBX8 chromodomain (CD),< 10 µM
